Earlier results on two substances are cited in PMC4117426.

Data set [1] has as its target FtsZ tail peptide C-terminal tail (Escherichia coli) (UniProt P0A9A6).
The target is the same in data set [2]. The source holds these as a separate data set.

Like-named read-outs stand apart in the source and are kept apart here.

FtsA, sequence (P0ABH0 whole entry): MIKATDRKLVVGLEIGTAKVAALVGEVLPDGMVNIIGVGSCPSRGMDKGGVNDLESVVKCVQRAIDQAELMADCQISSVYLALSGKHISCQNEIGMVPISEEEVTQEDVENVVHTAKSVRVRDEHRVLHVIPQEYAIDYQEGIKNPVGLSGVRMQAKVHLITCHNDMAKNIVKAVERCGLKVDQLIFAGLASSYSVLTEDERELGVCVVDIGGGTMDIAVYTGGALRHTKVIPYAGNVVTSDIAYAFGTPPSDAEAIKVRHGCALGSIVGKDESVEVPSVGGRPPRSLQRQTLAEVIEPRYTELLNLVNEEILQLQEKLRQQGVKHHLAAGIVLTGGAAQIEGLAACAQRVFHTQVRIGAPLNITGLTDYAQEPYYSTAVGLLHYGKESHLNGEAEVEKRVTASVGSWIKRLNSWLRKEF

A word on the Kd: it is the concentration at which binding is half-saturated. Turning to FtsA (from UniProt P0ABH0), in data set [1], the equilibrium dissociation constant (Kd) is 50 µM.
In the case of ZipA (from UniProt P77173), the Kd in data set [2] is 20 µM.
